One assay concerns the target Clone 3.2.22. The assay can be described thus: yeast display flow cytometry titration; estimated.
In another assay the target is Clone 3.2.16. The assay can be described thus: yeast display flow cytometry titration; estimated.
For the next assay, the target named is Clone 3.2.1. The assay can be described thus: yeast display flow cytometry titration; estimated.
Another assay concerns the target Clone 3.2.17. As to the kind of experiment: yeast display flow cytometry titration; estimated.
The next assay has as its target Clone 3.2.20. As to the kind of experiment: yeast display flow cytometry titration; apparent.
The target in the next assay is 1DD-Fn-v4 Monomers. The assay can be described thus: flow cytometry titration on cells; apparent.

B1: EpCAM (receptor)
chain: QEECVCENYKLAVNCFVNNNRQCQCTSVGAQNTVICSKLAAKCLVMKAEMNGSKLGRRAKPEGALQNNDGLYDPDCDESGLFKAKQCNGTSMCWCVNTAGVRRTDKDTEITCSERVRTYWIIIELKHKAREKPYDSKSLRTALQKEITTRYQLDPKFITSILYENNVITIDLVQNSSQKTQNDVDIADVAYYFEKDVKGESLFHSKKMDLTVNGEQLDLDPGQTLIYYVDEKAPEFSMQGLK
modifications: biotinylated (site not stated)
Consider B1, for which the Kd with Clone 3.2.22 was 190 nM; with Clone 3.2.16, 150 nM; with Clone 3.2.1, 190 nM; with Clone 3.2.17 it was 130 nM; in the assay with Clone 3.2.20, 140 nM.

B2: MCF-7 Cells (receptor)
chain: QEECVCENYKLAVNCFVNNNRQCQCTSVGAQNTVICSKLAAKCLVMKAEMNGSKLGRRAKPEGALQNNDGLYDPDCDESGLFKAKQCNGTSMCWCVNTAGVRRTDKDTEITCSERVRTYWIIIELKHKAREKPYDSKSLRTALQKEITTRYQLDPKFITSILYENNVITIDLVQNSSQKTQNDVDIADVAYYFEKDVKGESLFHSKKMDLTVNGEQLDLDPGQTLIYYVDEKAPEFSMQGLKAGVIAVIVVVVIAVVAGIVVLVISRKKRMAKYEKAEIKEMGEMHRELNA
Regarding B2, the Kd in the assay with 1DD-Fn-v4 Monomers is 34.8 nM.

The values are drawn from patent US20180251524A1 (published 2018).
